{"source": "the DeepSol protein solubility set", "data": [{"experiment": "soluble on expression in E. coli; label from the status in PepcDB or PDB records", "values": [{"sequence": "MQWVKQLNVVFCTMLFSFSSYANLSDFKVATWNLQGSSAVNESKWNINVRQLLSGEQGADILMVQEAGSLPSSAVRTSRVIQHGGTPIEEYTWNLGTRSRPNMVYIYYSRLDVGANRVNLAIVSRRQADEAFIVHSDSSVLQSRPAVGIRIGTDVFFTVHALATGGSDAVSLIRNIFTTFTSSPSSPERRGYSWMVVGDFNRAPVNLEAALRQEPAVSENTIIIAPTEPTHRSGNILDYAILHDAHLPRREQARERIGASLMLNQLRSQITSDHFPVSFVHDR", "soluble on expression in E. coli": "soluble"}, {"sequence": "MILNKKKLYFETQAFTDKLINEISINMSKRKELINCYDIEAYVKETENIDFFDYPFKKQSKKLIWGSVTKIGDVTMVATAQHLKIEIKNFTKMHEIIHHYFDYTTDMPNNEKSFDTLLIKKGYLPEDYPKEFRANKGAGMLLINKKALKYAFSTYDDLEKMASFFNVNDIVLKIRILDELIYSHNLSYKQANLIYNSYYFQQQTQLKEILLK", "soluble on expression in E. coli": "not soluble"}, {"sequence": "MGSDKIHHHHHHMNTIYNTLRTDKGYKVYEGYLYEITGEECEEALDLVIPKNIVFADTDTCGYTFLLNEDGTVYDDVTFYKFDDKYWLASHKALDSYLDNINFDYTVTDISDEYKMLQIEGRYSGEIAQSFYEYDISTLNFRTLIEMTYKGEKGYLARFGFSGEFGYQFFLPSSIFATFVSDVCEGIAEYGDELDRYLRFEVGQPITDIYQQEEYSLYEIGYSWNLDFTKEEFRGRDSLLEHIRSATVKSVGFSTKEKLASGTPVLFDDQIVGKIFWIADEKDSSENYLGLMIVNQTYAHSGVTFVTEDGQILKTQSSPYCIPESWNKE", "soluble on expression in E. coli": "not soluble"}, {"sequence": "DSDVEIATIALLDTVQPAHLAPDTKEETVKRWERYSAFAKKTYGLDFPVPYELLETAGEDALLAMMAEFLSTTDATEHGLSAGVLEHQRASFVDNRILDRMDMQRWANVKIPVMLFRAERMHDGAIELEPAYAEIEPDGGWSAIVEDLVIIQLSGDHLAVVDEPEIGKVGVALTNRIEQLQGK", "soluble on expression in E. coli": "not soluble"}, {"sequence": "ATFIEQQVGGNLTEASLALRLPTLLPYNGVLFLGNSLLVRLVDALTQLPESYPVYTNRGASGIDGLLATAAGIGIGSNKPVVAVIGDTSTLYDLNSFALFKNVTQPTLIFVINNNGGAIFDMLPVDEQVKDQFYRLPHNGDFSQIAAMFDLKYAHPYTWADLNSVVKQAYSRRKATLIEIKTNPSDG", "soluble on expression in E. coli": "not soluble"}, {"sequence": "SNAMLHIDDAMIEDAVTPQAAQEVLHAAFLDFGRGSAAMQRRVRTEAGGVKLSTLGAVIPGQGVAGAKVYTTIKGQFQFVILLFSAADGRPLATCDAGTLTRKRTAACTVLAAGALARPRSSVLGLFGAGTQGAEHAAQLSARFALEAILVHDPYASPEILERIGRRCGVPARMAAPADIAAQADIVVTATRSTTPLFAGQALRAGAFVGAIGSSLPHTRELDDEALRRARAVVVEWREQTLSEAGDLVLAAPDTGLDAKVVELADVLAGRAAARQADEDIVIYKSVGVGLEDVALAGYAYRRLAAQRGWPAP", "soluble on expression in E. coli": "soluble"}, {"sequence": "MAHHHHHHMADQIYHKLINENIKMLCNDLLPNEKKDEKKKEYYNNMNINCSSKCEELCNNINDRLQKIKDIVHLRSTKANGILIETLNYIKEYIKEIEKYIQIFNKLIYEENRAYLFIEEIFNTLENQNQNIQKIYNICSKNIVITKNNNELILKNPKACSSLSYEFVNNLMNSGQQKNNNNNNNKKEQIVQQHNIENQGANYLN", "soluble on expression in E. coli": "not soluble"}, {"sequence": "MSLKEYKSKIEFSVYSTSGMKTRMEDYYLCIKNMNKMIQKEKKELTYFGVFDGHVGTSAADYCNFKLYNEIVRSKSFPKNIENAIQDGIINVENGFKEIAMKTKVNAGTTLAIVMIYDNTIYTANVGDSEIVVCYNDGSYVVTSEKHNPSVDKEKARIESAGGKVFYNHGWRVDGLLGVSRSIGDESMKKYVICQPKIWSKAIDSSFQFIIVACDGFWNVFKYEDAINLARNYLFNYSFSNEEDKDSNGIILPRNKGDVSRYLIDIALKRQSFDNITVTICYFNEGHHHHHH", "soluble on expression in E. coli": "soluble"}, {"sequence": "MGGSHHHHHHGMASLAPGSSRVELFKRQSSKVPFEKDGKVTERVVHSFRLPALVNVDGVMVAIADARYETSFANSLIDTVAKYSVDDGETWETQIAIKNSRASSVSRVVDPTVIVKGNKLYVLVGSYNSSRSYWTSHGDARDWDILLAVGEVTKSTAGGKITASIKWGSPVSLKEFFPAEMEGMHTNQFLGGAGVAIVASNGNLVYPVQVTNKKKQVFSKIFYSEDEGKTWKFGKGRSAFGCSEPVALEWEGKLIINTRVDYRRRLVYESSDMGNTWLEAVGTLSRVWGPSPKSNQPGSQSSFTAVTIEGMRVMLFTHPLNFKGRWLRDRLNLWLTDNQRIYNVGQVSIGDENSAYSSVLYKDDKLYCLHEINSNEVYSLVFARLVGELRIIKSVLQSWKNWDSHLSSICTPADPAASSSERGCGPAVTTVGLVGFLSHSATKTEWEDAYRCVNASTANAERVPNGLKFAGVGGGALWPVSQQGQNQRYHFANHAFTLVASVTIHEVPKGASPLLGASLDSSGGKKLLGLSYDKRHQWQPIYGSTPVTPTGSWEMGKRYHVVLTMANKIGSVYIDGEPLEGSGQTVVPDERTPDISHFYVGGYKRSGMPTDSRVTVNNVLLYNRQLNAEEIRTLFLSQDLIGTEAHMD", "soluble on expression in E. coli": "soluble"}, {"sequence": "MIEFSENSHRKSLIEELPRIVERGEKEAQKILDGLSKSQRITLQTNELVLPTKAIGELNKFYGQTIKTENNNEFLNRLIYGDNLLAMQAFLAGDPETGLPSMRGKIDLIYIDPPFDSKANYRTKIHLPTADVEQMPSVIEQFAYSDTWKDGTKSYLEMIVPRLVLMKELLSEKGSIYVHIDWHVGHYVKVIMDEIFGRENFVNEIVWKKTNSPKAQSKGFGTQHDVLYIYRKTPQFIFNQIKKEPDEDYLKSYVYDDNDGRGPYQTVALVAGGIQRSENRKIFEFHGVRAPWLYSLENLERFWSDGRIFKTKTGYRLKVYLKDIALRLYLIYGLTRK", "soluble on expression in E. coli": "not soluble"}, {"sequence": "MKGEEKMPSFDIVSEVDLQEARNGVDNAVREVESRFDFRGVEATIELNDANKTIKVLSESDFQVNQLLDILRAKLLKRGIEGASLDVPDEFVHSGKTWYVEAKLKQGIESAVQKKIVKLIKDSKLKVQAQIQGEEIRVTGKSRDDLQSVMALVRGGDLGQPFQFKNFRD", "soluble on expression in E. coli": "not soluble"}, {"sequence": "MKKHGVLNSEIAAVLASLGHTDTVVIADCGLPIPDGVKRIDLAVEIGKPSFLEVLQVVADDMAIEKVTLAEEVIINNAEVNKEIERKLIEPAFEYVSHEQFKEHTKKAKAIIRTGEATPYANVILHAGVIF", "soluble on expression in E. coli": "not soluble"}, {"sequence": "MSLNRFFNRELSWLAFNTRVLNEAKDESLPLLERLKFLAIYDTNLDEFYMIRVAGLKQLYEHKIASKGIDGASPEEQLEKIKHYLAHEIEERELEFQKIQALLFKKGLCITPYNELNLEQKAKAKTYFKEQLYALVLPFKLDSSHTFPPLANLTFALFARIKDKETQIISYALIKLPSFIFRFVELEKGLFVLAEEIVEAHLEELFLEHEILDCMAFRVTCDADIAITEDEAHDYADLMSKSLRKRNQGEIVRLQTQKGSQELLKTLLASLRSFQTHSYKKHKLTGMHIYKSAIMLNLGDLWELVNHSDFKALKSPNFTPKIHPHFNENDLFKSIEKQDLLLFHPYESFEPVIDLIEQAASDPATLSIKMTLYRVGKHSPIVKALIEAASKIQVSVLVELKARFDEESNLHWAKALERAGALVVYGVFKLKVHAKMLLITKKTDNQLRHFTHLSTGNYNPLSAKVYTDVSFFSAKNEIANDIIKLFHSLLTSSATNSALETLFMAPKQIKPKIIELIQNEMNHQQEGYIILKANALVDSEIIEWLYQASQKGVKIDLIIRGICCLKPQVKGLSENIRVYSIVGKYLEHARIYYFKHENIYFSSADLMPRNLERRVELLIPATNPKIAHKLLHILEIQLKDTLKRYELNSKGRYIKVSNPNDPLNSQDYFEKQALKTFEGHHHHHH", "soluble on expression in E. coli": "soluble"}, {"sequence": "MGRFAVYEDPFVTKLMNTIGSMTFDGLGFTLLELYRDLVISADNYFMNYVNYGETPHDVGEESIEDPIYGASYPYWWTDLGPTLVLMLYRDYVFTSNREILEKNYNKIKEIIDWLIRKDMDNDCIPDSKGGYDNSYDGTHMYGASSYIASMFLSALTAFIKMSEILDVKIDDKYYRFLECGKKTFNSLWNGKYFILWKKNDEENTSCLNSQLLGQFWCDILGLPPITDHDKINTALRSIYELNFKASKYCLTNAVREDGSVDSSTAQLRSCWPRVSFAVAAHMILRGMVKEGIEVAKREWETIKELNPFDQSSRIDAIDGKYVGLMSYIGSTSVWLLKLALDKIRLEHHHHHH", "soluble on expression in E. coli": "soluble"}]}]}
